Reference: the nanobody polyreactivity screen of Harvey et al. (2022)

Experiment: yeast display, Sf9 membrane polyspecificity reagent, FACS + sequencing; frameworks hold sequencing errors
Outline: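 Synthetic nanobody libraries on Saccharomyces cerevisiae BJ5465 were galactose-induced for 36–48 hours, stained 1 hour at 4 °C with 10% biotinylated, detergent-solubilized Sf9 membrane reagent and enriched on streptavidin microbeads. FACS then separated cells into low and high (top ~1%) gates by anti-HA (expression) and streptavidin (reagent binding) fluorescence. Genes were colony-PCR amplified, MiSeq 2 × 250 sequenced and CDR-length filtered. A clone's polyreactivity label is that of its gate of origin.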

| Sequence | polyreactivity (PSR sort gate) |
| --- | --- |
| QVQLVETGGGLVQAGGSLRLSCAASGFTLYYYARGWYRQAPGKERELVAAITARGVSTYADSVKGRFTISRDNAKNTVYLQMNSLKPEDTAVYYCAADRRYNVIGEFGYWGQGTQVTVSS | low polyreactivity |
| QVQLQESGGGLVQVGGSQRLSCAASGNIFYNYAMGWYRHAQGKEREFDATINHGTSINYADSVKGRFTISRDNAKNTVYLQMNSLKPEDTAVYYCAARVVRYGYKYYYWGQGTQVTVSS | low polyreactivity |
| QVQLVESGGGLVQAGGSLRLSCAASGLIFQYYAMGWYRPAPGKERELVAAISSDGNTYYADSVKGRFTISRDNAKNTVYLQMNSLKPEDTAVYYCAADWYIAYSEYGYWGQGTKVTVSS | low polyreactivity |
| QVQLVESGGGLVQAGGSLRLSCAASGRTFDSYTMGWYRQAPGKERELLADITFTGGSTYYADSVKGRFTISRDNAKNTVYLQMNSLKPEDTAVYYCAAESVAILGLVYPKGYGYWGQGTQVTVSS | low polyreactivity |
| QVQLVESGGGLVQAGGSLRLSCAGSGRTSLAYAMGWYRQAPGKERELVAGITSGGNTNYADSVKGRFTISCDNAKNTVYLQMNSLKPEDTAVYYCNKKKRWQWYSESVLDYLGFYSWGQGTQVTVSS | low polyreactivity |
| QVQLVESGGGLVQAGGSLRLSCAASGFTFLDYAMGWYRQAPGKERELVAAIDDSGGSTYYADSVKGRFTISRDNAKNTVYLQMNSLKPEDTAVYYCAADWYFFSQLYDYWGQGTQVTVSS | low polyreactivity |
| QVQLVESGGGLVQAGGRLRLTCAASGSTFFTNAMGWYRQAPGKERELVAAITINDGSTFYADSVKGRFTISRDNAKKTVYLQMNSLKPEDTAVYYCNADGVDLYDFWGQGTQVTVSS | low polyreactivity |
| QVQLVESGGGLVQAGGSLRLSCAASGSIFWRYAMGWYRQAPGKERELVAAITWSGGTSYADSVKGRFTLSRDNAKNTVYLQMNSLKQEDTAVYYCIADGLSYYLYDYWGQGTQVTVSS | low polyreactivity |
| QVQLVESGGGLVQAGGSLRLSCAASGSTFSGYVMGWYRQAPGKERELVAAINGGGGTTYYADSVKGRFTISRDNAKNTVYLQMNSLKPEDTAVYYCAKRSYVTYPPYDYWGQGTQVTVSS | high polyreactivity |
| QFQLVESGGGLVQAGGSLRLSCAASGYIFVRYTMGWYRQAPGKERELVAAISWGGGSTYYADSVKGLFTISRDNAKNTVYLQMNSLKPEDTAVYYCNNRYIQLYDYWGQGTQVTVSS | low polyreactivity |
| QVQLVESGGGLVQAGGSLRLSCAASGRTFQWYAMGWYRQAPGKERELVAAIRYSAGSTYYADSVKGRFTISRDHAKNTVYLQMNSLKREDTAVYYCAAEPYPYGPYYFLWLRYDYWGQGTQVTVSS | low polyreactivity |
| QVQLVESGGGYVQAGGSLRLSCAASGSIFRGYAMGWSRQAPGKEWELVATIDSSAGSTYYADSVKGRYTISRDNAKNTVYLQMNSLKPEDTAVFYCATDPYGYYYSGYDYWGQGTQVTVSW | low polyreactivity |
| QVHLVESGGGLVQAGGSLRLSCAASGSTFSGYAMGWDRQAPGKDREFVATITSTGSTNYADSVKGRFTSSRDNAKNTVYLQMNSLNPEENAVYYCHSRYWFVERYFLHYASVRYDYWGQGTKVTVSS | low polyreactivity |
| QVQLVDSGGGLVQAGGSLRLSCAASGRTFQFYVMGWYRQAPGKERELVASIRSGGSTNYADSVKGRFTISRDNAKNTVYLQMNSLKPEDTAVYYCATESYPADQDIPGSDYWGQGTQVTVSS | low polyreactivity |
| QVQLVESGGGLVQAGGSLRLSCAASGITFLYYAMGWYRQAPGKERELVAAISGGGASTYYADSVKGRFTSSRDNAKNTVYLQMNSLKPEDTAVYDCAAGYRDFFRARFGYWGQGTQVTVAS | high polyreactivity |
| QVQLVESGGGLVQAGGSLRLSCAASGSIFIVYARGWYRPAPGRERELVATITSGGSTNYADSVKGRFTISRDNAKKTVYLQMNSLKPEDTAVYYCAKDLYYGDYYYWGLGTQVTVSS | low polyreactivity |
| QVQLVESGGGLVQAGGILRLSCAASGSIFVNNAMGLYRQAPGKERELVAAITSGTRTNYADSVKGRFTISRDNAKNTVYLQMNSLKPEDTAVYYCAAVKYRYAYVPPRFDYWGQGTQVTVSS | low polyreactivity |
| QVQLVESGGGLVQAGGSLRLSCAASGSTFGFNAMGWYRQAPGKERELLPLFWSGGSTYYADSVKGRFTISRDNAKNTVYLQMYSLKPEDTAVYYCNKDSPPITRYDYWGQGTQVTVSS | low polyreactivity |
| QVQLVESGGGLVQAGGSLRLSCAASGSISWVYAMGWYRQAPGKERELVADITDSGDSTYYADSVKGRFTISRDNAKNTVYLQMNSLKPEDTAVYYCAADGWRHYYIYWPYNYWGQGTQVTVSS | low polyreactivity |
| QVQLVESGGGLVQAGGSLRLSCAASGSTFKQYAKGWYRQAPGKERELVAAISSVGRTYYADSVKGRFTISRDNAKNTVYLQINSLKPEDTAVYYCNRRWYTHWGQGTQVTVSS | high polyreactivity |
| QVQLVESGGGLVQAGGSLRLSCAASGLTFNVYAMGWSRQAPGTERELVAALTSGGRTYYADSVKGRFTISRDNEKNTVYLQMNSLKPEDTAVYYCSKSRWYGYSLSGAKRQRSFDYWGQGTQVTVSS | high polyreactivity |
| QVQLVESGGGLVQAGGSLRLSCAATGFTFGFNDMGWYRQAPGKERELVAAISWSGGRTYYADSVKGRFTISRDNAKNTVYLQMNSLKPEDTAVYDCAAEGVGRADRNKEYDYWGQGTQVTVSS | high polyreactivity |

| Sequence | polyreactivity (PSR sort gate) |
| --- | --- |
| QVQHVESARGLVPAGGSLRLSCAASGFTVIRYAMGRYRQAPGKERELVAAIRGTGTSTYYADSVKGRFTISRDIAKNTVYLQLNSLKPEDTAVYYCNKVAGRSPYTRYDYWGQGTQVTVSS | low polyreactivity |
| QVQLVDSGGGLVQAGGSLRLSCAASGSILYHYAMGWYRQAPGKERELVAGISWRGGSTYYADSVKGRFTISRDNAKNTVYLQMNSLKPEATAVYYCATQRYPYRFYAFQYYYWGQGTQVTVSS | low polyreactivity |
| QVQLVESGGGLVQAGGSLRLSCAASGLIFRRYVMGWYRQAPGKERELVAAITSRGTRTYYADSVKGRFTISRDNAKNTVYLQMNSLKPEDTAVYYCNAQIYTYRTGRGYSRMDYWGQGTQVTVSS | high polyreactivity |
| QVQLVESGGGLVQAGGSLRLSCAASGRTFGRNAMGWYRQAPGKERELVAAITWSGVTTYYADSVKGRFTISRDNAKNTVYLQMNSLKPEDTAVYYCATGTLYSDGAIYGYWGQGTQVTVSS | low polyreactivity |
| QVQLVESGGGLVQAGGSLRLSCAASGSTFYRYAMGWYRQAPGKERELVATITNSGGSTYYADSVKGRFTISRDNAKNTVYLQMNSLKPEDTAVYYCARVRSRNTGYYYWGQGTQVTVSS | high polyreactivity |
| EVQIVESGGCLVQAGGSLGIRCAASGRIFNIYAMGWYRQAPGKERELFAAISRGGGSKYYADSVKGRFTISRDNAKKTVDLQLNRLKPVDTAVYYCNTDRFPSGRIHRYNYWGQGTQVSVSS | low polyreactivity |
| QVQLVESGGGLVQAGGSLRLSCAASGFIFYTYAMGWYRQAPGKERELVAGINSGGDTNYADSVKGRFTISRDNAKNTVYLQINSLKPEDTAVYYCAATSYVHKYYGYFGAIKYEYWGHGTQVTVSS | low polyreactivity |
| QVWLQESGGGRVQACGSLRLSCAASGTIARDIFMGWYRQAPGKEREFVATIAQGGITNYADSVKGRFTISRDNAKNTVYLQMNSVKPGDTAVYYCAARDGNCYWFYYWGQGTQVTVSS | high polyreactivity |
| QVQLVESGGGLVQAGGSLRLSCAASGRISTRYTMGWYRQAPGKERELVAAISGNAGRTYYADSVKGRFTISRDNAKNTVYVQMNSLKPADTAVYYCARESGYRAYEIQFYYWGQGTQVTVSS | high polyreactivity |
| QVQLVESGGGLVQAGGSLRLSCAASGGIFYRNAMGWYRQAPGKERELVAAISSGGGSTYYADSVKGRFTISRDNAKNTVYLQMNSLKPEDTAVYYCARDSYHLYIQPFGYWGQGTQVTVSS | low polyreactivity |
| QVQLVESGGGLVQARGSLRLSCAASGRNFADYAMGWYRQAPGKERELVAAIDWSDGSTKYADSVKGRFTISRDNAKNTVYLQINSLKPEDTAVYYCGADYWPRDGLGWWYDYWGQGTQVTVSS | low polyreactivity |
| QVQLVESGGGLVQAGGSLRLSCAASGRIFRYYVMGWYRQAPGKERELVAAISRSGGTTYYADSVKGRFTISRDTATNTVYLQMNSLKREDTAVFYCAAVYGRDPGDYWGQGTQVTVSS | high polyreactivity |
| QVQIVESGGGLVQAGGSLRLSCAASGSILYYYAMGWYRQAPGKERELVATITSGGTTNYADSVKGRFTISRDNAKNTFYLQMNRLKPEDTAVYYCATEEVYGQGNYWGQGTQVTVSS | low polyreactivity |
| QVQLVESGGGLDQAGGSLRLSCAASGRTFPYNTMGWYRQAPGKERELVASITYTDGSTSYADSVKGRFTISRDNAKNTVYLQMNSLKPEDTSVYYCAADYYAHQDYRFDYWGQGTQVTVSS | low polyreactivity |
| QVQLVESGGGLVQAGGSLRLSCAASRSTFAYYSMGWYRKEPGKETELVAAITRGGSTNYADSVKGRFRISRDNAKNTVLLQMNSLKPEDTAVYYCAAGDVQDYEYDYLGQGTQVTVSS | low polyreactivity |
| QVQLVESGGGLVQAGGSLRLSCAASGSIFFGYAMGWYRQAPGKERELVAAISTRGGRTYYADSVKGRFTISRDNAKNTVYLQMNSLKPEDTAVYYCAAFQAHQTAFDYWGQGTQVTVSS | high polyreactivity |
| QDQLVESGGGLVQAGGSLRLSCAASGSTLAGYAMGWYRLAPGKVRELVAAIDWTGGSTTYADSVKGRFTISRDNAKNTVYLQMNSLKPEDTAVYYCNVDLGVNGDYWGQGTQVTVSS | low polyreactivity |
| QVQLVESGGGLVQAGGSLRLSCAASGRIFRRYAMGWYRQAPGKERELVASISLSGGSTYYADSVKGRFTISRDNAKNTVYLQMNSLKPEDTAVYYCAAVIRAYATRATYNSWGQGTQVTVSS | high polyreactivity |
| QVQLVESGGGLVQAGGSLRLSCAASGRIIYVYAMGWYRQAPGKERELVAAISDSGGSTYYADSVKGRFTISRDNAKNTVYLQMNSLKPEDTAVYYCAAEGYYSDYWGQGTQVTVSS | high polyreactivity |
| QVQLVETGGGLVQAGGSLRLSCAASGSIFEYNGMGWYRQAPGKERELVAAITTTGTTDYADSVKGRFTISRDNAKNTVYLLMNSLKPEDTAVYYCAADYTYYYKGEYDYWGQGTQVTVSS | low polyreactivity |
| QVQLVESGGGLVQAGGSLRLSCAASGRTFTRYAMGWYRQAPGKERELVAAITIGDTTNYADSVKGRFTISRDNAKNTVYLQMNSLKPEDTAVYYCAAYVPRWSSYRRGGYWGQGTQVTVSS | high polyreactivity |
